We go through nine proteins from publication PMC10844744, “C9orf72-associated dipeptide protein repeats form A11-positive oligomers in amyotrophic lateral sclerosis and frontotemporal dementia” (The Journal of Biological Chemistry, 2024).

B1: proline–arginine dipeptide protein repeat, 6 repeats (PR6) (peptide)
peptide: PRPRPRPRPRPR
notes: source: synthetic peptide (Scenic Biotech)
B2: glycine–alanine dipeptide protein repeat, 3 repeats (GA3) (peptide)
peptide: GAGAGA
notes: as for B1
B3: proline–arginine dipeptide protein repeat, 3 repeats (PR3) (peptide)
peptide: PRPRPR
notes: as for B1
B4: glycine–arginine dipeptide protein repeat, 3 repeats (GR3) (peptide)
peptide: GRGRGR
notes: as for B1
B5: glycine–arginine dipeptide protein repeat, 6 repeats (GR6) (peptide)
peptide: GRGRGRGRGRGR
notes: as for B1
B6: glycine–alanine dipeptide protein repeat, 6 repeats (GA6) (peptide)
peptide: GAGAGAGAGAGA
notes: as for B1
B7: glycine–alanine dipeptide protein repeat, 12 repeats (GA12) (peptide)
peptide: GAGAGAGAGAGAGAGAGAGAGAGA
notes: as for B1
B8: proline–arginine dipeptide protein repeat, 12 repeats (PR12) (peptide)
peptide: PRPRPRPRPRPRPRPRPRPRPRPR
notes: as for B1
B9: glycine–arginine dipeptide protein repeat, 12 repeats (GR12) (peptide)
peptide: GRGRGRGRGRGRGRGRGRGRGRGR
notes: as for B1

One data set concerns the molecule itself. Put plainly: far-Western, overlay or dot blot; synthetic DPRs gently stirred in 1x PBS for 6 days, aliquots at days 1, 2, 4 and 6; 1 ul of 1 mg/ml dotted on nitrocellulose; oligomers read out with oligomer-specific antibody A11-19 (1:8000), fibrillar aggregates with OC (1:10,000).
Regarding B1, the binding result is “binds”.
The same measure, in the same setting: for B2 the value was “binds”.
Regarding B3, the binding result is “binds”.
On to B4, for which the binding result was “binds”.
B5: the binding result is reported as “binds”.
The same measure, in the same setting: for B6 the value was “binds”.

The next data set concerns the molecule itself. Put plainly: far-Western, overlay or dot blot; monomeric 12-repeat DPRs seeded with brain-derived DPRs at 1:70 M ratio (seed to monomer), orbital shaker, 37 °C, 72 h; oligomerization confirmed by dot blot.
Consider B7, for which the binding result was “binds”.
The same measure, in the same setting: for B8 the value was “binds”.
Still for that read-out and setting: for B9 the value was “binds”.
